# Assay results: article PMC6908968 (Cell, 2019)
# T1: thermolysin-cleaved EBOV GP on Jurkat-GP cells (cleaved GP) (Zaire ebolavirus, Makona (GP1 core …, strain))
# T1 chain 1: not shown
# T1 chain 2: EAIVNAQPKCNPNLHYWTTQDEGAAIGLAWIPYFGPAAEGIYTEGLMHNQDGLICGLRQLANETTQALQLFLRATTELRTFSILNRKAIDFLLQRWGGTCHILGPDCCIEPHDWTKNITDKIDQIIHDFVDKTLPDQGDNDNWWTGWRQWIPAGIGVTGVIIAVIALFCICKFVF
# Tests used:
# [1] = molecular target: EBOV GP ectodomain residues 1-636 (GPec) (Zaire ebolavirus, strain  …, UniProt Q05320)
# [2] = molecular target: T1, thermolysin-cleaved EBOV GP on …
Binder,binding result [1],binding result [2]
"5.6.c3166 (antibody, V domains shown) VH: EVHLVESGGGLVQPGGSLRLSCAASGFSFNTHWMNWVRQAPGKGLEWVANIKQNGGEKYYVDSVKGRFTISRDNAKNTLFLQMNSLRGDDTAVYYCARGPPPAAPEDLFYNYTMDVWGQGTTVTVSS VL: EIVMTQSPATLSVSPGERATLSCRASQSVINHLAWYQQKPGQTPRLLIYGASTRATGIPARFSGSGSGTEFTLTISSLQSEDFAVYFCQQYNTWPPFTFGGGTKVEIK",binds,binds
"5.6.c3113 (antibody, V domains shown) VH: EVQMVESGGGLAQPGGSLRLSCAASGFTFSSYEMSWVRQAPGKGLEWVSYISTSGNTIYYADSVKGRFTISRDNAKNSLYLQMNNLRAEDTAFYYCAANHGDNLFWYFDLWGRGTLVTVSS VL: DIQLIQSPSFLSASVGDRVTITCRASQGISSYLAWYQQKLGKAPKLLMYAASTLQSGVPSRFSGSGSGTEFTLTISSLQPEDFATYYCQQLNGYPPTFGQGTKLEIK",binds,binds
"5.6.c3053 (antibody, V domains shown) VH: QVQLVESGGGLVQPGRSLRLSCAASGFTFTNYGMQWVRQGPGKGLEWVALIWYDGYSKYYVDSVKGRFTISRDNSKNTLYLEMNSLRAEDTAVYYCARGNGYSSGWLDNWGQGTLVTVSS VL: DIQMTQSPSTLSASVGDRVTITCRASQSIDNWLAWYQQKPGKAPKVLIYKASSLESGVPSRFSGSASGTEFTLTISSLQPDDFATYYCQHYNSYSGTFGQGTKVEIK",binds,binds
"5.6.c3221 (antibody, V domains shown) VH: QEELVESGGGVVQPGRSLRLSCAASTFTFSIYAMHWVRQAPGKGLEWVAVISYDGSNRYYADSVKGRFTISRDNSKNTVYLQMNSLRAEDTAVYFCAKDLGSNGWYYFDSWGQGTLVTVSS VL: EIVLTQSPGTLSLSPGERATLSCRASQSVSSRYLAWYQQKPGQAPRLLIYGVSSRATGVPDRFSGSGSGTDFTLTISRLEPEDFAVYYCQHYGSSPWRPFGQGTKLEIK",binds,binds
"5.6.c3108 (antibody, V domains shown) VH: QVQLVESGGGVVQPGRSLRLSCAASGFTFSNSDMHWVRQAPGKGLEWVALIYFDGSSQYYVDSVKGRFTISRDNSKNTLYLQMNSLRVEDTAVYYCAREAAIVGAIFYDGMDVWGQGTTVTVSS VL: EIVMTQSPATLSVSPGEGATLSCRASQNVGFNVAWYQQRPGQAPRLLIYGASTRATGVPARFSGSGSGTEFTLTISSLQSEDFAVYYCQQCNNWPPLTFGGGTKVEIK",binds,binds
"5.6.c3133 (antibody, V domains shown) VH: QVQLVQSGAEVKKPGSSVKVSCKTSGGTLSTYPFSWVRQAPGQGLEWMGGIIPFFGTTNYAQKFQGRLTMTADKSTNTVYMELGSLRSEDTAVYYCAREHGDDIYYYFAMDVWGQGTTVTVSS VL: not shown",binds,binds
"5.6.c3067 (antibody, V domains shown) VH: EVQLVESGGGLVQPGGSLRLSCAASGFTFSNYWMTWVRQAPGKGLEWVGNIKEDGSEKYYVDSVKGRFTISRDNAKNSLYLQLNNLRAEDTAVYYCAREPAGFVFEGGFDYWGQGTLVTVSS VL: DIQMTQSPSSVSASVGDRVTILCRASQYITTWLAWYQQKPGRAPKLLISAASTLQSGVPSRFSGSGSGTDFTLTISSLQPEDFATYYCQQAHSLPWTFGQGTKVEIK",binds,binds
"5.6.c3206 (antibody, V domains shown) VH: QVQLKESGPGLVKPSQTLSLTCSVSGGAISNGGYCYTWIRQRPGKGLESIGYMHYSGSPYYNPSLKSRVTIYVDTSKNQFSLKLSSVTAADTAVYYCARGLLWFGESPFYYFDYWGQGTLVTVSS VL: QSVLTQPPSVSGAPGQRVTISCTGSSSNIGAGYDVHWYQQLPGTAPKLLIYGNSNRPSGVPDRFSGSKSGTSASLAITGLQAEDEADYYCQSCDSSLSVVFGGGTKLTVL",binds,binds
"5.6.c3197 (antibody, V domains shown) VH: QVQVVESGGGVVQPGKSLRLSCAASGFTFSSYGMHWVRQAPGKGLEWVAFIAYDGSNEYYADSVKGRFTISRDNSKITLYLQMNSLRAEDTAMYYCAKEGAGHDALYYYGMDVWGQGTTVTVSS VL: DIQMTQSPSSVSASVGDRVTITCRASQGISFWLAWYQQKPGKAPELLISAASSLQSGVPSRFSGSGSGTDFTLTISSLQPEDFATYYCLQAHSFPYTFGQGTKLEIK",binds,binds
"5.6.c3360 (antibody, V domains shown) VH: EVQVVESGGGLVKPGGSLRLSCAASGFSFSIYSMNWVRQAPGKGLEWVSSITGSSSYTNYAGSVKGRFTISRDNAKNSLYLQMNSLRADDTAVYYCARDGAVDTDIYYYGMDVWGQGTTVTVSS VL: DIQMTQSPSFVSASIGDRVTITCRASQDISSWLAWYQQKPGKAPTLLIYATSTLQSGVPSRFSGSGSGTDFTLTISSLQPEDFATYYCLQAHSFPRTFGQGTQLEIK",binds,binds
"5.6.c3236 (antibody, V domains shown) VH: QVQLLESGPGLVKPSETLSLTCAVSGGSVSSNTHFWSWIRQPPGKGLEWIGYTLSSGSTAYNPSLKSRVSLSVDTSKNHFSLKLTSVTAADTAVYYCAGTVIQGVVSFDWFDPWGQGTLVTVSS VL: DIQMTQSPSSLSASVGDRVTITCRASQSINSYLNWYQQRPGKAPKLLIYTTSNLQSGVPSRFSGSGSGTDFTLTISSLQPEDFATYYCQQSYSTPLTFGGGTKVEIK",binds,binds
"5.6.c3054 (antibody, V domains shown) VH: QVTLRESGPALVKPTQTLTLTCTFSGFSLSTSGMCVSWIRQPPGKALEWLALIDWNDGKYYTTSLKTRLTISKDTSKNQVVLTMTNMDPVDTATYYCARIFTSSDWFYDAFDLWGQGAMVTVSS VL: QIVMTQSPATLSVSPGERATLSCRASQSVNNNLAWYQQKPGQAPRLLISGASTRATGIPARFSGSGFGTEFTLTISSLQSEDFAVYYCQQYNTWPPLTFGPGTRVDIK",binds,binds
"5.6.c3250 (antibody, V domains shown) VH: QVQLVESGGGLVKPGGSLRLSCAASGFTFSDYDMSWIRQAPGKGLEWISYISSSGTTIYDADSVKGRFTISRDNAKNSLSLQVNSLRAEDTAVYYCARNVEQIVGATLDYWGQGTLVTVSS VL: EIVLTQSPATLSLSPGERATLSCRASQSISSFLAWYQQKLGQAPRLLIFDASNRATGIPARFSGSGSGTDFTLTISSLEPEDFAVYYCHHWTFGQGTKVEIK",binds,binds
"5.6.c3057 (antibody, V domains shown) VH: QVQLVESGGGVVQSGRSLRLSCAASGFTLSSYGMHWVRQAPGKGLEWVATVSFDGNNEYYADSVKGRFTISRDKSKNTLYLQMNSLRPEDTAMYYCAKEPLPARGDFWSGHYSPPSYYYYGMDVWGQGTTVTVSS VL: QTVVTQEPSFSVSPGGTVTLTCGLRSGSVSTNYYPSWYQQTPGQPPRTLIYNTNTRSFGVPDRFSGSILGNRAALTITGAQADDESDYYCLLYMDSGIWVFGGGTKLTVL",binds,binds
"5.6.c3295 (antibody, V domains shown) VH: EVQLVESGGDLVQPGGSLRLSCAASGFTVNANYLGWVRQTPGKGLEWVSLIYSGSGSTYYADSVKGRFTLSRDSSKNTLFLHMNSLRPEDTAVYYCARAGGCGGDCYSYYFDYWGRGTLVTVSS VL: DIQMTQSPSTLSASVGDRVTITCRASQSISRWLAWYQQKPGKAPKLLIYRASSLQNGVPSRFSGSGSGTEFTLTISGLQPDDFGIYYCQEYSSRYTFGQGTQLEIK",binds,binds
"5.6.c3151 (antibody, V domains shown) VH: EVQLVESGGGVVQPGGSLRLSCAASGFDFDDYPMNWVRQAPGKGLELVFLISGDGGSTYSADSVKGRFTISRDNSKNSLYLQMNSLRTEDTALYYCAKDAVDNSGLYYYGMDVWGQGTTVIVSS VL: DIQMTQSPSSVSASVGDRVTINCRASQGISGWLAWYQQKPGKAPKLLIYAASSLQSGVPSRFSGSGSGTDFTLAISSLQPEDLATYYCQQTHSFPFTFGPGTKVGIK",binds,binds
"5.6.c3191 (antibody, V domains shown) VH: QVQLAQSGAEVKKPGASVKVSCKSSGYNFTTHGFNWVRQVPGQGLEWMGWISAYNADTNYAQKFQGRLTLTTETSSNTAYMELRSLTSDDTAVYYCARGEEYSTLYFYGMDVWGQGTTVTVSS VL: DIQMTQSPSSVSASVGDRVTITCRASQGISIWLAWYQQKPGKAPKLLIYGASTLQSGVPSRFSGSGSGADYTLTINSLQPEDFATYFCQQAHSFPYTFGQGTKLEIR",binds,binds
"5.6.c3225 (antibody, V domains shown) VH: EVQLVESGGGLVKPGGSLRLSCAASGFTFSSYTMNWVRQAPGKGLEWVSFISSTSRYIHYADSVKGRFTISRDNAKNSLFLQINSLRDEDTAVYFCARESVDDTSMLYYGLDVWGQGTTVTVSS VL: DIQMTQSPSSLSASVGGRVTITCRASQSISSSLSWYQQKPGKAPKFLIYGASTLESGVPSRFSGSGSGTDFTLTISSLQPEDFATYFCQQSHSLPWTFGQGTKVEIK",binds,binds
"5.6.c3083 (antibody, V domains shown) VH: QVQLVQSGVEVKKPGASVKLSCKASGYTFTTYGISWVRQAPGQGLEWMGWISAYDDNANYGQQFQGRVTMTTDTSTSTAYMELRSLRSDDTAVYFCARCGGEFIWGWLDPWGQGTLVTVSS VL: QSALTQPASVSGSPGQSITISCTGTSSDIGGYNYVSWYQQHPGLAPKLMIYDVSYRPSGVSNRFSGSKSGNTASLTISGLQAEDEADYYCSSYTSSGTLVFGGGTKLTVL",binds,binds
"5.6.c3168 (antibody, V domains shown) VH: EVQLVESGGGLVQPGGSLRLSCAASGFTLSNYDMNWVRQAPGKRLEWVSYISSSGSTTYYVDSVKGRFTISRDNAKNSLYLQMNSLRAEDTAVYYCARGHNNWFLYFDSWGQGTLVTVSS VL: EILMTQSPATLSVSPGERATLSCRASQSVSSNLAWYQQVPGQAPRLLISDASTRATGIPARFSGSGSGTEFTLTINSLQSEDFAVYYCQQYNDWPGTFGQGTKLEIK",binds,binds
